Assay results from IntAct's records for PubMed 15893672.

B1: Angiopoietin-2 (Homo sapiens), O15123-1 (parent)
chain: MWQIVFFTLSCDLVLAAAYNNFRKSMDSIGKKQYQVQHGSCSYTFLLPEMDNCRSSSSPYVSNAVQRDAPLEYDDSVQRLQVLENIMENNTQWLMKLENYIQDNMKKEMVEIQQNAVQNQTAVMIEIGTNLLNQTAEQTRKLTDVEAQVLNQTTRLELQLLEHSLSTNKLEKQILDQTSEINKLQDKNSFLEKKVLAMEDKHIIQLQSIKEEKDQLQVLVSKQNSIIEELEKKIVTATVNNSVLQKQQHDLMETVNNLLTMMSTSNSAKDPTVAKEEQISFRDCAEVFKSGHTTNGIYTLTFPNSTEEIKAYCDMEAGGGGWTIIQRREDGSVDFQRTWKEYKVGFGNPSGEYWLGNEFVSQLTNQQRYVLKIHLKDWEGNEAYSLYEHFYLSSEELNYRIHLKGLTGTAGKISSISQPGNDFSTKDGDNDKCICKCSQMLTGGWWFDACGPSNLNGMYYPQRQNTNKFNGIKWYYWKGSGYSLKATTMMIRPADF

Variants of: B1
Details: with tie2_human TEK

Row | effect of a mutation on the interaction | Variant
1 | disrupting interaction | F469A;Y475A;Y476A
2 | disrupting interaction | K468E;K473E
